Measured values from paper PMC9878614.
pKd: −log10 of the molar value.

Experiments:
F-actin = F-actin (UniProt P68133); conditions: cited from earlier work
[1] = biological target: F-actin (filamentous actin) (human (endogenous in HEK293)) (UniProt P60709); test: single-molecule localisation microscopy (direct-LIVE-PAINT, TIRF); live HEK293 cells transiently transfected with LifeAct-14-EGFP plasmid (4 ng or 20 ng DNA), imaged 24 h later at 37°C; 488 nm excitation, 50 ms exposure, 2000 frames; transient binding events read as single-molecule localisations

localizations/s (4 ng DNA transfected) (localizations/s) [1]	localizations/s (20 ng DNA transfected) (localizations/s) [1]	Substance	pKd (F-actin)
		LifeAct-14 1-14 (from UniProt Q08641)	5.92
540	1860	LifeAct-14-EGFP (from UniProt Q08641 1-14) (peptide)	
